Experimental data: paper PMC9482650, “Quantitative fragmentomics allow affinity mapping of interactomes” (Nature Communications, 2022)

T1: APBA1_1, Q02410
T1 sequence (Q02410 651-752, limits assumed, looked up): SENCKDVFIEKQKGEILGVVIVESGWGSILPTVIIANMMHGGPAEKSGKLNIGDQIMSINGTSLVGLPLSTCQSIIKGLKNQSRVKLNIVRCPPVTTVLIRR

T2: SNTG2, Q9NY99
T2 sequence (Q9NY99 68-166, limits assumed, looked up): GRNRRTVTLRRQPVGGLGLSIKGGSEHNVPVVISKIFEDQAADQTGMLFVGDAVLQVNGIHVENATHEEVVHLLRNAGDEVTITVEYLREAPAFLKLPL

T3: GRIP1_2, Q9Y3R0
T3 sequence (Q9Y3R0 145-248, limits assumed, looked up): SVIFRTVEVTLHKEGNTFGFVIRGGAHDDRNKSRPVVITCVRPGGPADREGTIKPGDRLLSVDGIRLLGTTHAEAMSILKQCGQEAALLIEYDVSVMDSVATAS

T4: SNTB1, Q13884
T4 sequence (Q13884 107-205, limits assumed, looked up): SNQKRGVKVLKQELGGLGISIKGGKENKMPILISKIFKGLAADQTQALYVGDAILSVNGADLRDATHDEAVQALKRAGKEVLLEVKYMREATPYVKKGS

T5: APBA3_1, O96018
T5 sequence (O96018 389-490, limits assumed, looked up): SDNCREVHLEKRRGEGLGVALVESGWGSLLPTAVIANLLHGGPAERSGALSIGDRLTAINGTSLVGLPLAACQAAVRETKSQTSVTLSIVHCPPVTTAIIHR

T6: SHANK1, Q9Y566
T6 sequence (Q9Y566 658-767, limits assumed, looked up): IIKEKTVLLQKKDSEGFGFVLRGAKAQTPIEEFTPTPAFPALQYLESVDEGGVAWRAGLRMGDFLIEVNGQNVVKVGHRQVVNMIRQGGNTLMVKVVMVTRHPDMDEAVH

T7: NHERF3_1, Q5T2W1
T7 sequence (Q5T2W1 4-100, limits assumed, looked up): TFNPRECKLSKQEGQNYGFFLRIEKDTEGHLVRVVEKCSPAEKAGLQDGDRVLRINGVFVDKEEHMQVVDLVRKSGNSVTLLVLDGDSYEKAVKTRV

T8: MPDZ_5, O75970
T8 sequence (O75970 695-796, limits assumed, looked up): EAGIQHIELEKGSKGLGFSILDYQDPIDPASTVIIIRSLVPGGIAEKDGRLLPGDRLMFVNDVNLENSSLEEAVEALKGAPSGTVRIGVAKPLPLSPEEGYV

T9: TJP3_3, O95049
T9 sequence (O95049 375-456, limits assumed, looked up): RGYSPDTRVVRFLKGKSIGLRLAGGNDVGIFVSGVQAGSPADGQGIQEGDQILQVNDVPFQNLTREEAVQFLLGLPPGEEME

T10: GRIP1_5, Q9Y3R0
T10 sequence (Q9Y3R0 568-668, limits assumed, looked up): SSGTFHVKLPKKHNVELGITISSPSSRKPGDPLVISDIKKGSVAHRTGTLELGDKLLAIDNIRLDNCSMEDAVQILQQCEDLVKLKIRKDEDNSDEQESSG

T11: SNTG1, Q9NSN8
T11 sequence (Q9NSN8 52-150, limits assumed, looked up): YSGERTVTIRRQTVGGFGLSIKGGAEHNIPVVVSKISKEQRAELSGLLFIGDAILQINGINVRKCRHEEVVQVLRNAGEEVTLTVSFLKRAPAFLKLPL

T12: APBA2_1, Q99767
T12 sequence (Q99767 563-664, limits assumed, looked up): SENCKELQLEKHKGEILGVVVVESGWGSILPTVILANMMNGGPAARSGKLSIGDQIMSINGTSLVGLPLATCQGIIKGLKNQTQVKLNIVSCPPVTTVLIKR


Target: T1, APBA1_1, Q02410
Test: holdup assay
Design: key: below the threshold = too weak to quantify, mostly under pKd 3.1 to 4
Conditions: plain residues with an end cap or a label only (N-terminal biotin on a linker: ado-ado)

Row | Binder | pKd
1 | LRYARPADAL [PPP1R3G, B7ZBB8] | below the threshold
2 | KSTTRSSSSC [NDE1, Q9NXR1;Q9NXR1-2] | below the threshold

Target: T2, SNTG2, Q9NY99
Test: holdup assay
Design: key: below the threshold = too weak to quantify, mostly under pKd 3.1 to 4
Conditions: plain residues with an end cap or a label only (N-terminal biotin on a linker: ado-ado)

Row | Binder | pKd
3 | LRYARPADAL [PPP1R3G, B7ZBB8] | below the threshold
4 | KSTTRSSSSC [NDE1, Q9NXR1;Q9NXR1-2] | below the threshold

Target: AHNAK1, Q09666
Test: holdup assay
Design: key: below the threshold = too weak to quantify, mostly under pKd 3.1 to 4
Conditions: plain residues with an end cap or a label only (N-terminal biotin on a linker: ado-ado)

Chain of AHNAK1, Q09666 (Q09666 4-100): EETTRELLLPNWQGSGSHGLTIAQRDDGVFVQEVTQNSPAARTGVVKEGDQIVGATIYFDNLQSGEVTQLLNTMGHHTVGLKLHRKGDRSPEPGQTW

Row | Binder | pKd
5 | LRYARPADAL [PPP1R3G, B7ZBB8] | below the threshold
6 | KSTTRSSSSC [NDE1, Q9NXR1;Q9NXR1-2] | below the threshold

Target: T3, GRIP1_2, Q9Y3R0
Test: holdup assay
Design: key: below the threshold = too weak to quantify, mostly under pKd 3.1 to 4
Conditions: plain residues with an end cap or a label only (N-terminal biotin on a linker: ado-ado)

Row | Binder | pKd
7 | LRYARPADAL [PPP1R3G, B7ZBB8] | below the threshold
8 | KSTTRSSSSC [NDE1, Q9NXR1;Q9NXR1-2] | below the threshold

Target: T4, SNTB1, Q13884
Test: holdup assay
Design: key: below the threshold = too weak to quantify, mostly under pKd 3.1 to 4
Conditions: plain residues with an end cap or a label only (N-terminal biotin on a linker: ado-ado)

Row | Binder | pKd
9 | LRYARPADAL [PPP1R3G, B7ZBB8] | below the threshold
10 | KSTTRSSSSC [NDE1, Q9NXR1;Q9NXR1-2] | below the threshold

Target: T5, APBA3_1, O96018
Test: holdup assay
Design: key: below the threshold = too weak to quantify, mostly under pKd 3.1 to 4
Conditions: plain residues with an end cap or a label only (N-terminal biotin on a linker: ado-ado)

Row | Binder | pKd
11 | LRYARPADAL [PPP1R3G, B7ZBB8] | below the threshold
12 | KSTTRSSSSC [NDE1, Q9NXR1;Q9NXR1-2] | below the threshold

Target: T6, SHANK1, Q9Y566
Test: holdup assay
Design: key: below the threshold = too weak to quantify, mostly under pKd 3.1 to 4
Conditions: plain residues with an end cap or a label only (N-terminal biotin on a linker: ado-ado)

Row | Binder | pKd
13 | LRYARPADAL [PPP1R3G, B7ZBB8] | below the threshold
14 | KSTTRSSSSC [NDE1, Q9NXR1;Q9NXR1-2] | below the threshold

Target: MAGI1_1, Q96QZ7
Test: holdup assay
Design: key: below the threshold = too weak to quantify, mostly under pKd 3.1 to 4
Conditions: plain residues with an end cap or a label only (N-terminal biotin on a linker: ado-ado)

Chain of MAGI1_1, Q96QZ7 (Q96QZ7 1-106): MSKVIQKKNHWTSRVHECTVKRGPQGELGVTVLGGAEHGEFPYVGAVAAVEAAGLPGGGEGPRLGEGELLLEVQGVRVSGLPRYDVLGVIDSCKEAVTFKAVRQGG

Row | Binder | pKd
15 | LRYARPADAL [PPP1R3G, B7ZBB8] | below the threshold
16 | KSTTRSSSSC [NDE1, Q9NXR1;Q9NXR1-2] | below the threshold

Target: T7, NHERF3_1, Q5T2W1
Test: holdup assay
Design: key: below the threshold = too weak to quantify, mostly under pKd 3.1 to 4
Conditions: plain residues with an end cap or a label only (N-terminal biotin on a linker: ado-ado)

Row | Binder | pKd
17 | LRYARPADAL [PPP1R3G, B7ZBB8] | 3.9
18 | KSTTRSSSSC [NDE1, Q9NXR1;Q9NXR1-2] | 3.91

Target: GRIP2_6, Q9C0E4
Test: holdup assay
Design: key: below the threshold = too weak to quantify, mostly under pKd 3.1 to 4
Conditions: plain residues with an end cap or a label only (N-terminal biotin on a linker: ado-ado)

Chain of GRIP2_6, Q9C0E4 (Q9C0E4 648-740): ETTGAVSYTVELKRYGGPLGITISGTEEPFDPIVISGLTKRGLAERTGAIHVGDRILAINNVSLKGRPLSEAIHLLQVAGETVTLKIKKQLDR

Row | Binder | pKd
19 | LRYARPADAL [PPP1R3G, B7ZBB8] | below the threshold
20 | KSTTRSSSSC [NDE1, Q9NXR1;Q9NXR1-2] | below the threshold

Target: GOPC, Q9HD26
Test: holdup assay
Design: key: below the threshold = too weak to quantify, mostly under pKd 3.1 to 4
Conditions: plain residues with an end cap or a label only (N-terminal biotin on a linker: ado-ado)

Row | Binder | pKd
21 | LRYARPADAL [PPP1R3G, B7ZBB8] | below the threshold
22 | KSTTRSSSSC [NDE1, Q9NXR1;Q9NXR1-2] | below the threshold

Target: T8, MPDZ_5, O75970
Test: holdup assay
Design: key: below the threshold = too weak to quantify, mostly under pKd 3.1 to 4
Conditions: plain residues with an end cap or a label only (N-terminal biotin on a linker: ado-ado)

Row | Binder | pKd
23 | LRYARPADAL [PPP1R3G, B7ZBB8] | below the threshold
24 | KSTTRSSSSC [NDE1, Q9NXR1;Q9NXR1-2] | below the threshold

Target: GRID2IP_2, A4D2P6
Test: holdup assay
Design: key: below the threshold = too weak to quantify, mostly under pKd 3.1 to 4
Conditions: plain residues with an end cap or a label only (N-terminal biotin on a linker: ado-ado)

Chain of GRID2IP_2, A4D2P6 (A4D2P6 272-370): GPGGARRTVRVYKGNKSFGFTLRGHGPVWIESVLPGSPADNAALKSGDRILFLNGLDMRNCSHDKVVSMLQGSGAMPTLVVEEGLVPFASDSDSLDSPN

Row | Binder | pKd
25 | LRYARPADAL [PPP1R3G, B7ZBB8] | below the threshold

Target: Inadl_9, Q8NI35
Test: holdup assay
Design: key: below the threshold = too weak to quantify, mostly under pKd 3.1 to 4
Conditions: plain residues with an end cap or a label only (N-terminal biotin on a linker: ado-ado)

Chain of Inadl_9, Q8NI35 (Q8NI35 1530-1615): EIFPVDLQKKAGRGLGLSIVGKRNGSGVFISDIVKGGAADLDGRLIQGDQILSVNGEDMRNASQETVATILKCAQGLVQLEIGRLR

Row | Binder | pKd
26 | LRYARPADAL [PPP1R3G, B7ZBB8] | below the threshold
27 | KSTTRSSSSC [NDE1, Q9NXR1;Q9NXR1-2] | below the threshold

Target: GORASP1, Q9BQQ3
Test: holdup assay
Design: key: below the threshold = too weak to quantify, mostly under pKd 3.1 to 4
Conditions: plain residues with an end cap or a label only (N-terminal biotin on a linker: ado-ado)

Chain of GORASP1, Q9BQQ3 (Q9BQQ3 1-208): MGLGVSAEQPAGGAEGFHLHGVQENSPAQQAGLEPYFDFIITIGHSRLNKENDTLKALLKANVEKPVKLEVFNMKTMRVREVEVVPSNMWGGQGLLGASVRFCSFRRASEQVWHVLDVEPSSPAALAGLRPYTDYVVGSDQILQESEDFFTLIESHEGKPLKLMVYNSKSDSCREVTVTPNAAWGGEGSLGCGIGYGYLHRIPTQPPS

Row | Binder | pKd
28 | LRYARPADAL [PPP1R3G, B7ZBB8] | below the threshold
29 | KSTTRSSSSC [NDE1, Q9NXR1;Q9NXR1-2] | below the threshold

Target: T9, TJP3_3, O95049
Test: holdup assay
Design: key: below the threshold = too weak to quantify, mostly under pKd 3.1 to 4
Conditions: plain residues with an end cap or a label only (N-terminal biotin on a linker: ado-ado)

Row | Binder | pKd
30 | LRYARPADAL [PPP1R3G, B7ZBB8] | below the threshold
31 | KSTTRSSSSC [NDE1, Q9NXR1;Q9NXR1-2] | below the threshold

Target: PARD3_3, Q8TEW0
Test: holdup assay
Design: key: below the threshold = too weak to quantify, mostly under pKd 3.1 to 4
Conditions: plain residues with an end cap or a label only (N-terminal biotin on a linker: ado-ado)

Chain of PARD3_3, Q8TEW0 (Q8TEW0 582-685): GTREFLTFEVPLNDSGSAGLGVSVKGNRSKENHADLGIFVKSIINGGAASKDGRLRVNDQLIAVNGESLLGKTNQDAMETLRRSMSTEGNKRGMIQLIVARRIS

Row | Binder | pKd
32 | LRYARPADAL [PPP1R3G, B7ZBB8] | below the threshold
33 | KSTTRSSSSC [NDE1, Q9NXR1;Q9NXR1-2] | below the threshold

Target: GRIP2_7, Q9C0E4
Test: holdup assay
Design: key: below the threshold = too weak to quantify, mostly under pKd 3.1 to 4
Conditions: plain residues with an end cap or a label only (N-terminal biotin on a linker: ado-ado)

Chain of GRIP2_7, Q9C0E4 (Q9C0E4 934-1023): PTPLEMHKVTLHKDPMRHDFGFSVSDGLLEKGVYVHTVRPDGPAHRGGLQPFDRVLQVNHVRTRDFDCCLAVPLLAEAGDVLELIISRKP

Row | Binder | pKd
34 | LRYARPADAL [PPP1R3G, B7ZBB8] | below the threshold
35 | KSTTRSSSSC [NDE1, Q9NXR1;Q9NXR1-2] | below the threshold

Target: DLG1_3, Q12959
Test: holdup assay
Design: key: below the threshold = too weak to quantify, mostly under pKd 3.1 to 4
Conditions: plain residues with an end cap or a label only (N-terminal biotin on a linker: ado-ado)

Chain of DLG1_3, Q12959 (Q12959 457-571): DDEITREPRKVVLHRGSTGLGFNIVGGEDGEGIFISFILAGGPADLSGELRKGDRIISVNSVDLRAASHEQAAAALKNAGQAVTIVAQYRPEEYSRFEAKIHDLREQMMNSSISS

Row | Binder | pKd
36 | LRYARPADAL [PPP1R3G, B7ZBB8] | below the threshold
37 | KSTTRSSSSC [NDE1, Q9NXR1;Q9NXR1-2] | below the threshold

Target: T10, GRIP1_5, Q9Y3R0
Test: holdup assay
Design: key: below the threshold = too weak to quantify, mostly under pKd 3.1 to 4
Conditions: plain residues with an end cap or a label only (N-terminal biotin on a linker: ado-ado)

Row | Binder | pKd
38 | LRYARPADAL [PPP1R3G, B7ZBB8] | below the threshold
39 | KSTTRSSSSC [NDE1, Q9NXR1;Q9NXR1-2] | below the threshold

Target: Inadl_8, Q8NI35
Test: holdup assay
Design: key: below the threshold = too weak to quantify, mostly under pKd 3.1 to 4
Conditions: plain residues with an end cap or a label only (N-terminal biotin on a linker: ado-ado)

Chain of Inadl_8, Q8NI35 (Q8NI35 1425-1530): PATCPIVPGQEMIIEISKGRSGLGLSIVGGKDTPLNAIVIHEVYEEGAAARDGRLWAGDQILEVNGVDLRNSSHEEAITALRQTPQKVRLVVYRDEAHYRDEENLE

Row | Binder | pKd
40 | LRYARPADAL [PPP1R3G, B7ZBB8] | below the threshold
41 | KSTTRSSSSC [NDE1, Q9NXR1;Q9NXR1-2] | 4.18

Target: T11, SNTG1, Q9NSN8
Test: holdup assay
Design: key: below the threshold = too weak to quantify, mostly under pKd 3.1 to 4
Conditions: plain residues with an end cap or a label only (N-terminal biotin on a linker: ado-ado)

Row | Binder | pKd
42 | LRYARPADAL [PPP1R3G, B7ZBB8] | below the threshold
43 | KSTTRSSSSC [NDE1, Q9NXR1;Q9NXR1-2] | below the threshold

Target: DLG2_3, Q15700
Test: holdup assay
Design: key: below the threshold = too weak to quantify, mostly under pKd 3.1 to 4
Conditions: plain residues with an end cap or a label only (N-terminal biotin on a linker: ado-ado)

Row | Binder | pKd
44 | LRYARPADAL [PPP1R3G, B7ZBB8] | below the threshold

Target: T12, APBA2_1, Q99767
Test: holdup assay
Design: key: below the threshold = too weak to quantify, mostly under pKd 3.1 to 4
Conditions: plain residues with an end cap or a label only (N-terminal biotin on a linker: ado-ado)

Row | Binder | pKd
45 | LRYARPADAL [PPP1R3G, B7ZBB8] | below the threshold
46 | KSTTRSSSSC [NDE1, Q9NXR1;Q9NXR1-2] | below the threshold
